Columns and labels:
Mtr10p = Mtr10p (UniProt Q99189); experiment: GST pull-down, S-tag blot, no extract; conditions: reference: mock-phosphorylated GST-Npl3p; sites S411
Mtr10-Protein A = molecular target: T1, Mtr10-Protein A (S. cerevisiae, UniProt Q99189 1-972); experiment: co-IP
T1 sequence (looked up): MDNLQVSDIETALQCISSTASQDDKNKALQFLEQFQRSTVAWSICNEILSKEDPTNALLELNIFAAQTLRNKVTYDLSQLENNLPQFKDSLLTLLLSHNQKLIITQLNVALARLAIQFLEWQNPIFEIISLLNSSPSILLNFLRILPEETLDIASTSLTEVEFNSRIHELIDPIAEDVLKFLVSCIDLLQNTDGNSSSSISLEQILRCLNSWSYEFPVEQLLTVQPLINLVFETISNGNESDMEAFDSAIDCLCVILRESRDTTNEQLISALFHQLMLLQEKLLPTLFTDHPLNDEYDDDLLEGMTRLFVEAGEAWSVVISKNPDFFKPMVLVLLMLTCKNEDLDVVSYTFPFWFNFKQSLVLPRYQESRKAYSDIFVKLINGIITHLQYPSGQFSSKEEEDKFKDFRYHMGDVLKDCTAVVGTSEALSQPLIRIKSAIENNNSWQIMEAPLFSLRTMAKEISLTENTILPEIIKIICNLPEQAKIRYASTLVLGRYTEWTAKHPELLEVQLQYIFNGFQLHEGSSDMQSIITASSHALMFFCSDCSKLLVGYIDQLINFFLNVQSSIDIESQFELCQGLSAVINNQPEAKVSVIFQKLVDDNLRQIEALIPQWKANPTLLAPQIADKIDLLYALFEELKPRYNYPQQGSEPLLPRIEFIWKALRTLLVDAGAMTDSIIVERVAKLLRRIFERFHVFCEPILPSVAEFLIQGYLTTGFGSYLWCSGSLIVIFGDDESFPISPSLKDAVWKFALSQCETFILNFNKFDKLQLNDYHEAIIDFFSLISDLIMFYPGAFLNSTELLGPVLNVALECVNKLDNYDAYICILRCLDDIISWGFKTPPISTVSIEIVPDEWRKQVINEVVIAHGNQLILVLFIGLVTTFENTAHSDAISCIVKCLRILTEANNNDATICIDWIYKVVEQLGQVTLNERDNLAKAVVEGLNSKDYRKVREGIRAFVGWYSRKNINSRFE

[1] = molecular target: T2, in vitro-translated 35S-labeled Mtr10p (S. cerevisiae, UniProt Q99189 1-972, 35S-labeled)
T2 sequence (looked up): T1 sequence (looked up)

“Npl3p (from UniProt Q01560) Sky1p-phosphorylated GST-Npl3p” was tested, and the “binding against the reference” value (Mtr10p) was “stronger”.

B1: Npl3p (endogenous) (natural protein, S. cerevisiae (endogenous in yeast), UniProt Q01560 1-414, looked up)
chain: MSEAQETHVEQLPESVVDAPVEEQHQEPPQAPDAPQEPQVPQESAPQESAPQEPPAPQEQNDVPPPSNAPIYEGEESHSVQDYQEAHQHHQPPEPQPYYPPPPPGEHMHGRPPMHHRQEGELSNTRLFVRPFPLDVQESELNEIFGPFGPMKEVKILNGFAFVEFEEAESAAKAIEEVHGKSFANQPLEVVYSKLPAKRYRITMKNLPEGCSWQDLKDLARENSLETTFSSVNTRDFDGTGALEFPSEEILVEALERLNNIEFRGSVITVERDDNPPPIRRSNRGGFRGRGGFRGGFRGGFRGGFSRGGFGGPRGGFGGPRGGYGGYSRGGYGGYSRGGYGGSRGGYDSPRGGYDSPRGGYSRGGYGGPRNDYGPPRGSYGGSRGGYDGPRGDYGPPRDAYRTRDAPRERSPTR
For B1, the “fold reduction of co-precipitated Npl3p in sky1Δ against wild-type yeast” value (Mtr10-Protein A) was 3 fold.

B2: GST-Npl3p phosphorylated by Sky1p (natural protein, S. cerevisiae, UniProt Q01560 1-414, looked up)
chain: B1 chain
modifications: phosphoserine at 411 (single site of Sky1p)
B2 gave a Kd [1] of 30 nM.

Reference: PMC2175287 (The Journal of Cell Biology, 2000)
